We go through one molecule from patent US20200377604A1 (Genentech, published 2020).

This assay concerns the target T1, knob Fc F241R/F243S (Homo sapiens (Human), UniProt P0DOX5 223-449 = IgG part, F241R; F243S).
T1 construct: Positions are EU numbers; the entry starts at 221; also called Knob F241R/F243S; F241R/F243S mutant knob
Description: SPR (BioRad ProteOn), immobilized ligand Knob F241R/F243S, analyte Knob F241S/F243R at 6.25-200 nM. The procedure: FIGS. 11A-11E are a series of the surface plasmon resonance (SPR) spectra curves from experiments using an immobilized ligand. The analyte was passed over the ligand and the homodimerization was monitored. Analyte concetrations were tested at 6.25 nM, 12.5 nM, 25 nM, 50 nM, 100 nM and 200 nM. The ligands were: (A) The knob wild-type, (B) hole wild-type, (C) knob F241R/F243S, (D) knob F241S/F243R, and (E) hole F241S/F243R.
Using a BioRad ProteOn™ system, knob wild-type, hole wild-type, knob F241R/F243S, knob F241S/F243R, and hole F241S/F243R ligands were immobilized on an NHS activated sensor. The analyte, knob F241S/F243R, was passed over the sensor in 25 mM Tris 150 mM NaCl 0.05% Tween-20 pH 8.0. Analyte concentrations were 200 nM, 100 nM, 50 nM, 25 nM, 12.5 nM, and 6.25 nM. The ProteOnM chip was regenerated between each analyte concentration using 10 mM Glycine pH3. […] The Kd for the heterodimers is in the single digit nanomolar range in both cases.

B1: knob Fc F241S/F243R (other, name in EU numbering)
chain: DKTHTSPPSPAPELLGGPSVSLRPPKPKDTLMISRTPEVTCVVVDVSHEDPEVKFNWYVDGVEVHNAKTKPREEQYNSTYRVVSVLTVLHQDWLNGKEYKCKVSNKALPAPIEKTISKAKGQPREPQVYTLPPSREEMTKNQVSLWCLVKGFYPSDIAVEWESNGQPENNYKTTPPVLDSDGSFFLYSKLTVDKSRWQQGNVFSCSVMHEALHNHYTQKSLSLSPGK
notes: Positions are EU numbers; the entry starts at 221; This was the analyte in the SPR experiment; also called Knob F241S/F243R; F241S/F243R mutant knob
For B1, the binding result is reported as “no binding (tested: 200 nM)”.
